According to article PMC10397247:
Blank lines part the entries; values can stand above or below the binder they belong to.

What was measured:
[1] = molecular target: T1, O5; assay: two-hybrid library CC0; conditions: mean of both orientations;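 also: natural log of median RNA to DNA barcode read ratio; higher means stronger binding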
T1 chain: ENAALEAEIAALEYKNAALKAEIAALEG

[2] = molecular target: T2, O3; assay: two-hybrid library CC0; conditions: mean of both orientations;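 also: natural log of median RNA to DNA barcode read ratio; higher means stronger binding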
T2 chain: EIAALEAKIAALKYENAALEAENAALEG

[3] = molecular target: T3, O9; assay: two-hybrid library CC0; conditions: mean of both orientations;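 also: natural log of median RNA to DNA barcode read ratio; higher means stronger binding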
T3 chain: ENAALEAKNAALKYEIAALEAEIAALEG

[4] = molecular target: T4, O6; assay: two-hybrid library CC0; conditions: mean of both orientations;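 also: natural log of median RNA to DNA barcode read ratio; higher means stronger binding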
T4 chain: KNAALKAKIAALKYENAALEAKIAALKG

[5] = molecular target: T5, O7; assay: two-hybrid library CC0; conditions: mean of both orientations;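 also: natural log of median RNA to DNA barcode read ratio; higher means stronger binding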
T5 chain: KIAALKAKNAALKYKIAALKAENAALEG

[6] = molecular target: T6, O4; assay: two-hybrid library CC0; conditions: mean of both orientations;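 also: natural log of median RNA to DNA barcode read ratio; higher means stronger binding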
T6 chain: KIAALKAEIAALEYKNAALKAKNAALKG

[7] = molecular target: T7, O2; assay: two-hybrid library CC0; conditions: mean of both orientations
T7 chain: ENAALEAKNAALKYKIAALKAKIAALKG

[8] = molecular target: T8, O8; assay: two-hybrid library CC0; conditions: mean of both orientations
T8 chain: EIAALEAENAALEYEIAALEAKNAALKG

[9] = molecular target: T9, 4H918-AA; assay: two-hybrid library CCmax; conditions: mean of both orientations
T9 chain: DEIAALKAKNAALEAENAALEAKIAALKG

[10] = molecular target: T10, 4H3855-AA; assay: two-hybrid library CCmax; conditions: mean of both orientations
T10 chain: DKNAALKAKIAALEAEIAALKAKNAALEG

[11] = molecular target: 4H_GCN4; assay: two-hybrid library CCmax; conditions: mean of both orientations
[12] = molecular target: T11, 4H953-AA; assay: two-hybrid library CCmax; conditions: mean of both orientations
T11 chain: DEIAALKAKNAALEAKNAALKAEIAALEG

[13] = molecular target: T12, 4H717-AA; assay: two-hybrid library CCmax; conditions: mean of both orientations
T12 chain: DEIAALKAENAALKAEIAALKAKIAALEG

[14] = molecular target: T13, 4H483-AA; assay: two-hybrid library CCmax; conditions: mean of both orientations
T13 chain: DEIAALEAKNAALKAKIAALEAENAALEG

[15] = molecular target: T14, 4H535-AA; assay: two-hybrid library CCmax; conditions: mean of both orientations
T14 chain: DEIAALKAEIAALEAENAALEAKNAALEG

[16] = molecular target: T15, 4H568-AA; assay: two-hybrid library CCmax; conditions: mean of both orientations
T15 chain: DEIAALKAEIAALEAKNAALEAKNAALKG

[17] = molecular target: T16, 4H3939-AA; assay: two-hybrid library CCmax; conditions: mean of both orientations
T16 chain: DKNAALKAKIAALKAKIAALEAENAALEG

[18] = molecular target: T17, 4H883-AA; assay: two-hybrid library CCmax; conditions: mean of both orientations
T17 chain: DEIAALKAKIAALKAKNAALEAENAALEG

[19] = molecular target: T18, 4H58-AA; assay: two-hybrid library CCmax; conditions: mean of both orientations
T18 chain: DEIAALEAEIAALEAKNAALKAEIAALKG

[20] = molecular target: T19, 4H380-AA; assay: two-hybrid library CCmax; conditions: mean of both orientations
T19 chain: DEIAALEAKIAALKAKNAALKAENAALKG

[21] = molecular target: T20, 4H895-AA; assay: two-hybrid library CCmax; conditions: mean of both orientations
T20 chain: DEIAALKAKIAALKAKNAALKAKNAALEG

[22] = molecular target: T21, 4H4001-AA; assay: two-hybrid library CCmax; conditions: mean of both orientations
T21 chain: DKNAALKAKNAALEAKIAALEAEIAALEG

[23] = molecular target: T22, 4H3969-AA; assay: two-hybrid library CCmax; conditions: mean of both orientations
T22 chain: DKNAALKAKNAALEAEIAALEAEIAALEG

[24] = molecular target: T23, 4H967-AA; assay: two-hybrid library CCmax; conditions: mean of both orientations
T23 chain: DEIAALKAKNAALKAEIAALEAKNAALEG

[25] = molecular target: T24, 4H464-AA; assay: two-hybrid library CCmax; conditions: mean of both orientations
T24 chain: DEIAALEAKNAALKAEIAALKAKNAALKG

[26] = molecular target: T25, 4H797-AA; assay: two-hybrid library CCmax; conditions: mean of both orientations
T25 chain: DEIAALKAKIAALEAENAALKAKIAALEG

[27] = molecular target: T26, 4H687-AA; assay: two-hybrid library CCmax; conditions: mean of both orientations
T26 chain: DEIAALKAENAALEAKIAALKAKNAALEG

[28] = molecular target: T27, 4H465-AA; assay: two-hybrid library CCmax; conditions: mean of both orientations
T27 chain: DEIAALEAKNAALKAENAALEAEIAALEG

[29] = molecular target: GCN2_T; assay: two-hybrid library CCmax
[30] = molecular target: T28, 4H_BCR; assay: two-hybrid library CCmax; conditions: mean of both orientations
T28 chain: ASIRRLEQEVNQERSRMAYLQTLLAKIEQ

[31] = molecular target: T29, 4H3782-AA; assay: two-hybrid library CCmax
T29 chain: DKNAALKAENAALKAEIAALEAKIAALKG

[32] = molecular target: T30, 4H486-AA; assay: two-hybrid library CCmax; conditions: mean of both orientations
T30 chain: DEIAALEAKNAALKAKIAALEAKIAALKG

[33] = molecular target: T31, 4H_APH; assay: two-hybrid library CCmax; conditions: mean of both orientations
T31 chain: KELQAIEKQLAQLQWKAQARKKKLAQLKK

[34] = molecular target: T32, 4H446-AA; assay: two-hybrid library CCmax; conditions: mean of both orientations
T32 chain: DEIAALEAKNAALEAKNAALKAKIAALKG

[35] = molecular target: T33, 4H63-AA; assay: two-hybrid library CCmax; conditions: mean of both orientations
T33 chain: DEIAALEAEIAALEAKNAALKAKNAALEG

[36] = molecular target: T34, P7; assay: two-hybrid library CC1; conditions: mean of both orientations
T34 chain: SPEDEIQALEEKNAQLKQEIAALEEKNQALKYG

[37] = molecular target: T35, P6SC1; assay: two-hybrid library CC1; conditions: mean of both orientations
T35 chain: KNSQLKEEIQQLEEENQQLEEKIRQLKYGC

[38] = molecular target: T36, P9; assay: two-hybrid library CC1; conditions: mean of both orientations
T36 chain: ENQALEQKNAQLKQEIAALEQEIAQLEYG

[39] = molecular target: T37, P7mS; assay: two-hybrid library CC1; conditions: mean of both orientations
T37 chain: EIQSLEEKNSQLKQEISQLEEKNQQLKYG

[40] = molecular target: T38, P5mS; assay: two-hybrid library CC1; conditions: mean of both orientations
T38 chain: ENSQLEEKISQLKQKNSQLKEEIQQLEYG

[41] = molecular target: T39, P6SC2; assay: two-hybrid library CC1; conditions: mean of both orientations
T39 chain: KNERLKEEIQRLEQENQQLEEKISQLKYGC

[42] = molecular target: T40, P5SC1; assay: two-hybrid library CC1
T40 chain: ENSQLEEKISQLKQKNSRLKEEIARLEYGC

[43] = molecular target: T41, P8; assay: two-hybrid library CC1; conditions: mean of both orientations
T41 chain: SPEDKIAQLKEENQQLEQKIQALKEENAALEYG

[44] = molecular target: T42, P5SC2; assay: two-hybrid library CC1; conditions: mean of both orientations
T42 chain: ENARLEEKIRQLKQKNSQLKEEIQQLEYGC

[45] = molecular target: T43, P6mS; assay: two-hybrid library CC1; conditions: mean of both orientations
T43 chain: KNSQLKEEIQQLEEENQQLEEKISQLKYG

[46] = molecular target: T44, P6; assay: two-hybrid library CC1; conditions: mean of both orientations
T44 chain: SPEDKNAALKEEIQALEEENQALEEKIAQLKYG

[47] = molecular target: T45, P8mS; assay: two-hybrid library CC1; conditions: mean of both orientations
T45 chain: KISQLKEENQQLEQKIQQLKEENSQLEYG

Sequence of 4H_GCN4 (chain, as listed by the source): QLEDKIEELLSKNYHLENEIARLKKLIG

Binder: ENAALEAKNAALKYKIAALKAKIAALKG [O2]
- interaction score [1]: -2.66
- interaction score [2]: -2.68
- interaction score [3]: -1.04
- interaction score [4]: -2.73
- interaction score [5]: -2.83
- interaction score [6]: -2.74
- interaction score [7]: -2.68
- interaction score [8]: -2.05

- interaction score [9]: -0.968
- interaction score [10]: -0.587
- interaction score [11]: -2.54
- interaction score [12]: -1.68
- interaction score [13]: 1.02
- interaction score [14]: -0.902
- interaction score [15]: -1.44
- interaction score [16]: -1.41
- interaction score [17]: -0.413
- interaction score [18]: -1.27
- interaction score [19]: -1.38
- interaction score [20]: -1.52
- interaction score [21]: -1.54
- interaction score [22]: -0.482
- interaction score [23]: -0.912
- interaction score [24]: -1.19
- interaction score [25]: -0.448
- interaction score [26]: -1.45
- interaction score [27]: -0.545
- interaction score [28]: -1.7
- interaction score [29]: -1.87
- interaction score [30]: -1.19
- interaction score [31]: 0.893
- interaction score [32]: 1.41
- interaction score [33]: -2.26
- interaction score [34]: -1.07
- interaction score [35]: -1.44
Binder: DKNAALKAENAALKAEIAALEAKIAALKG [4H3782-AA]

Binder: ENSQLEEKISQLKQKNSRLKEEIARLEYGC [P5SC1]
- interaction score [36]: -2.4
- interaction score [37]: 0.372
- interaction score [38]: -2.33
- interaction score [39]: -2.67
- interaction score [40]: -2.78
- interaction score [41]: 0.373
- interaction score [42]: -2.92
- interaction score [43]: -0.893
- interaction score [44]: -2.82
- interaction score [45]: 0.307
- interaction score [46]: 0.357
- interaction score [47]: -2.29
